In PMC12053622 (2025):

T1: hMCT1/hBSG (Homo sapiens)
T1 chain 1: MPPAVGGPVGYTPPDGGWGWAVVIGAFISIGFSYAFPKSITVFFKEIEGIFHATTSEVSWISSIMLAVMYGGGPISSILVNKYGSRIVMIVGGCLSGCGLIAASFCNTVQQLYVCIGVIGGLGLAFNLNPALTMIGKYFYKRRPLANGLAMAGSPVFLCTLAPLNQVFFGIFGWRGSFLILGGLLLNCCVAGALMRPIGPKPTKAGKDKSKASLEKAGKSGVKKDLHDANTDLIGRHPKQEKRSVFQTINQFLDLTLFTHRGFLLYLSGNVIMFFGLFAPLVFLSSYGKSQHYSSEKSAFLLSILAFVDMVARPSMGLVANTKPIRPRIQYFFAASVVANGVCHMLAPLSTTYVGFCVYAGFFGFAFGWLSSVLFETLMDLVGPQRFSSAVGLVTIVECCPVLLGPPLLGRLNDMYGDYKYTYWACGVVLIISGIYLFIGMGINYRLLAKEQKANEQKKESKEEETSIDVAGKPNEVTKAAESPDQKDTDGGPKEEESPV
T1 chain 2: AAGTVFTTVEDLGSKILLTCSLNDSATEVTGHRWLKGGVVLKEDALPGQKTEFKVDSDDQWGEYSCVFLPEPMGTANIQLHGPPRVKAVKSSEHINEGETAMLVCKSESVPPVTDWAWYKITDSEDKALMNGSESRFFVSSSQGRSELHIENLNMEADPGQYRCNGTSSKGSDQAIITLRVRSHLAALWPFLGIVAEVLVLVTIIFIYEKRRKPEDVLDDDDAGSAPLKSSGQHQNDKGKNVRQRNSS

T2: WT mMCT1/mBSG complex (mouse, UniProt P53986 1-493)
T2 chain 1: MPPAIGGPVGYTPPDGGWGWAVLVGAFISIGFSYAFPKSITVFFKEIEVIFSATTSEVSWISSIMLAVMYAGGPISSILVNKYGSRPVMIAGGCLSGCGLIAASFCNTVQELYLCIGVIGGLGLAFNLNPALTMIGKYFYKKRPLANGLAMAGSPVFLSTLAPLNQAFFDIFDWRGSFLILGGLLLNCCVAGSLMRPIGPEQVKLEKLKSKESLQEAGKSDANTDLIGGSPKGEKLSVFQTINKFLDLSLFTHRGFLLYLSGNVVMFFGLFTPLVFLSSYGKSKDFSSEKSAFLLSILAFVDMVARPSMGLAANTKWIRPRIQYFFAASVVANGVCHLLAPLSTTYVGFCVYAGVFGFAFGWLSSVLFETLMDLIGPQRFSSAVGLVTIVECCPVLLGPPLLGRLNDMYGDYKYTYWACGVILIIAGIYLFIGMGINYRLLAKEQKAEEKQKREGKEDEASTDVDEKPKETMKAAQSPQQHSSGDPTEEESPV
T2 chain 2: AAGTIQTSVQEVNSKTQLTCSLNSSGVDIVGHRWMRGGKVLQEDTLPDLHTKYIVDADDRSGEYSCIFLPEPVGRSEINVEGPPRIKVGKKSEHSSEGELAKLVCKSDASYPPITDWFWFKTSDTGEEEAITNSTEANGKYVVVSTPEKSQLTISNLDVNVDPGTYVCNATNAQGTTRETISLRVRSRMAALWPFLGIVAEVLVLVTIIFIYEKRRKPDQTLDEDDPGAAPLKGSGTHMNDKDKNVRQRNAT

B1: 6E7F1 monoclonal antibody (antibody, V domains shown)
VH: QVQLQQPGAELVKPGASVNLSCKASGYTFTNYWIHWVKQRPGQGLEWIGMIHPNSGTINYNEKFKTKATLTVDKSSSTAYMQLSSLTSEDSAVYYCARVGTGSLDYWGQGTSVTVSS
VL: DIVMTQSPATLSVTPGDRVSLSCRASQSISDYLHWYQQKSHESPRLLIKYVSQSISGIPSRFSGSGSGSYFTLSIDSVEPEDVGVYYCQNGHRFPYTFGGGTKLEIK
modifications: Full-length hMCT1 with hBSG isoform 2 (limits not given; signal peptide 1-21 removed by convention); Ig-domain disulfides; N-glycosylated BSG if expressed in mammalian cells
B2: 6E7F1 monoclonal antibody (antibody, V domains shown)
VH: QVQLQQPGAELVKPGASVNLSCKASGYTFTNYWIHWVKQRPGQGLEWIGMIHPNSGTINYNEKFKTKATLTVDKSSSTAYMQLSSLTSEDSAVYYCARVGTGSLDYWGQGTSVTVSS
VL: DIVMTQSPATLSVTPGDRVSLSCRASQSISDYLHWYQQKSHESPRLLIKYVSQSISGIPSRFSGSGSGSYFTLSIDSVEPEDVGVYYCQNGHRFPYTFGGGTKLEIK

Tests used:
Experiment in all cases: BLI
hMCT1/hBSG [1] = target: T1, hMCT1/hBSG
hMCT1/hBSG [2] = target: T1, hMCT1/hBSG
WT mMCT1/mBSG complex = target: T2, WT mMCT1/mBSG complex

| Binder | Kd (hMCT1/hBSG [1]) | koff (hMCT1/hBSG [2]) | Kd (WT mMCT1/mBSG complex) |
| --- | --- | --- | --- |
| B1 | 4.41 nM | 0.000183 s⁻¹ |  |
| B2 |  |  | 0.421 nM |
